Results published in article PMC5984536.

Molecular target: actin filaments (F-actin) assembled in vitro from DyLight-labeled actin and biotinylated actin (UniProt P68135)
Experiment: TIRF microscopy of cofilin-EGFP on single actin filaments

cofilin-EGFP (recombinant mouse cofilin tagged on its C terminus) (from UniProt P18760 1-166) (natural protein)
average density of cofilin on stuck F-actin against that on mDia1(−) F-actin: 35 % lower
